From patent US20200165325A1
Numbering of substitutions follows the chain as printed. Read-outs that look alike come from different tables or passages of the source.

How the values were obtained:
[1] = target: HIV-1 Env of strain AC10.0.29 (HIV-1)
[2] = target: HIV-1 Env of strain CAP45.2.00.G3 (HIV-1)
[3] = target: HIV-1 Env of strain QH0692.42 (HIV-1)
[4] = target: HIV-1 Env of strain SC422661.8 (HIV-1)
[5] = target: HIV-1 Env of strain T257-31 (HIV-1)
[6] = target: HIV-1 Env of strain TRO.11 (HIV-1)
[7] = target: HIV-1 Env of strain ZM214M.PL15.11 (HIV-1)
[8] = target: Env (gp120) of HIV-1 strain AC10.0.29 (HIV-1)
[9] = target: Env (gp120) of HIV-1 strain CAP45.2.00.G3 (HIV-1)
[10] = target: Env (gp120) of HIV-1 strain QH0692.42 (HIV-1)
[11] = target: Env (gp120) of HIV-1 strain SC422661.8 (HIV-1)
[12] = target: Env (gp120) of HIV-1 strain T257-31 (HIV-1)
[13] = target: Env (gp120) of HIV-1 strain TRO.11 (HIV-1)
[14] = target: Env (gp120) of HIV-1 strain ZM214M.PL15 (HIV-1)
[15] = target: Env (gp120) of HIV-1 strain 3016.v5.c45 (HIV-1)
[16] = target: Env (gp120) of HIV-1 strain C2101.c01 (HIV-1)
[17] = target: HIV-1 Env of strain AC10.0.29 (HIV-1); remark: listed apart in the source
[18] = target: HIV-1 Env of strain CAP210.2.00.E8 (HIV-1)
[19] = target: HIV-1 Env of strain CAP45.2.00.G3 (HIV-1); remark: listed apart in the source
[20] = target: HIV-1 Env of strain Du172.17 (HIV-1)
[21] = target: HIV-1 Env of strain SC422661.8 (HIV-1); remark: listed apart in the source
[22] = target: HIV-1 Env of strain TRO.11 (HIV-1); remark: listed apart in the source

NIH45-46 heavy chain paired with VRC01 light chain, IgG (antibody)
In vitro neutralization IC50 [1]: 1 µg/mL
In vitro neutralization IC50 [2]: 2.1 µg/mL
In vitro neutralization IC50 [3]: 0.9 µg/mL
In vitro neutralization IC50 [4]: 0.2 µg/mL
In vitro neutralization IC50 [5]: 0.6 µg/mL
In vitro neutralization IC50 [6]: 0.3 µg/mL
In vitro neutralization IC50 [7]: 0.6 µg/mL

NIH45-46 Δ99a-99d (antibody)
neutralization IC50 [8]: 13 µg/mL
neutralization IC50 [9]: > 50 µg/mL
neutralization IC50 [10]: 3.7 µg/mL
neutralization IC50 [11]: 1.4 µg/mL
neutralization IC50 [12]: 7 µg/mL
neutralization IC50 [13]: > 50 µg/mL
neutralization IC50 [14]: 2.2 µg/mL

VRC01 (antibody)
neutralization IC50 [15]: 0.16 µg/mL
neutralization IC50 [16]: 0.36 µg/mL

VRC01 IgG (antibody)
In vitro neutralization IC50 [1]: 0.8 µg/mL
In vitro neutralization IC50 [2]: 1.8 µg/mL
In vitro neutralization IC50 [3]: 0.7 µg/mL
In vitro neutralization IC50 [4]: 0.2 µg/mL
In vitro neutralization IC50 [6]: 0.5 µg/mL
In vitro neutralization IC50 [7]: 0.8 µg/mL

VRC01 heavy chain paired with NIH45-46 light chain, IgG (antibody)
In vitro neutralization IC50 [1]: 4.5 µg/mL
In vitro neutralization IC50 [2]: > 50 µg/mL
In vitro neutralization IC50 [3]: 1.2 µg/mL
In vitro neutralization IC50 [4]: 0.4 µg/mL
In vitro neutralization IC50 [5]: 15 µg/mL
In vitro neutralization IC50 [6]: 24 µg/mL
In vitro neutralization IC50 [7]: 1.8 µg/mL

B1: 3BNC55 IgG (wild type) (antibody, V domains shown)
VH: QVQLVQSGTAVKRPGASVRVSCQASGYTFTDYFIYWWRQAPGQGLEWLGWINPLTSQPSYPSRFQGRLTLTRDTFDEMLYMDLRGLRSDDTGIYFCARRHSDYCDFDIWGSGTQIIVSS
VL: DIQMTQSPSSLSASVGDKVTITCQTSAGYLNWYQQRRGRAPKLLMYDGSRLVTGVPSRFSGRRWGTQYNLTIGSLQPEDIATYYCQVYEFFGPGTRLDLKS
In vitro neutralization IC50 [17]: > 50 µg/mL
In vitro neutralization IC50 [18]: > 50 µg/mL
In vitro neutralization IC50 [19]: > 50 µg/mL
In vitro neutralization IC50 [20]: 2 µg/mL
In vitro neutralization IC50 [21]: 0.3 µg/mL
In vitro neutralization IC50 [22]: 7.6 µg/mL

B2: 3BNC60 IgG (wild type) (antibody)
heavy: QVHLSQSGAAVTKPGASVRVSCEASGYKISDHFIHWWRQAPGQGLQWVGWINPKTGQPNNPRQFQGRVSLTRQASWDFDTYSFYMDLKAVRSDDTAIYFCARQRSDFWDFDVWGSGTQVTVSS
light: DIQMTQSPSSLSARVGDTVTITCQANGYLNWYQQRRGKAPKLLIYDGSKLERGVPARFSGRRWGQEYNLTINNLQPEDVATYFCQVYEFIVPGTRLDLKRTVA
In vitro neutralization IC50 [17]: 13 µg/mL
In vitro neutralization IC50 [18]: 4.7 µg/mL
In vitro neutralization IC50 [19]: 10 µg/mL
In vitro neutralization IC50 [20]: 0.05 µg/mL
In vitro neutralization IC50 [21]: 0.1 µg/mL
In vitro neutralization IC50 [22]: 0.07 µg/mL

B3: 3BNC117 IgG (wild type) (antibody)
heavy: B2 heavy with H3Q, S5L, K28N, S30R, H32Y, Q73H, Y81F, V90L, I97V, F107Y
light: B2 light with R14S, A56S, V79I, I90V
In vitro neutralization IC50 [17]: 6.5 µg/mL
In vitro neutralization IC50 [18]: 11 µg/mL
In vitro neutralization IC50 [19]: 16 µg/mL
In vitro neutralization IC50 [20]: 0.04 µg/mL
In vitro neutralization IC50 [21]: 0.07 µg/mL
In vitro neutralization IC50 [22]: 0.6 µg/mL

B4: 12A12 IgG (wild type) (antibody, V domains shown)
VH: SQHLVQSGTQVKKPGASVRISCQASGYSFTDYVLHWWRQAPGQGLEWMGWIKPVYGARNYARRFQGRINFDRDIYREIAFMDLSGLRSDDTALYFCARDGSGDDTSWHLDPWGQGTLVIVSA
VL: DIQMTQSPSSLSASVGDRVTITCQAGQGIGSSLQWYQQKPGKAPKLLVHGASNLHRGVPSRFSGSGFHTTFSLTISGLQRDDFATYFCAVLEFFGPGTKVEIKR
In vitro neutralization IC50 [17]: 0.6 µg/mL
In vitro neutralization IC50 [18]: > 50 µg/mL
In vitro neutralization IC50 [19]: 0.4 µg/mL
In vitro neutralization IC50 [20]: 0.2 µg/mL
In vitro neutralization IC50 [21]: 0.2 µg/mL
In vitro neutralization IC50 [22]: 0.3 µg/mL
